Reference: paper PMC4239642, “trans-Acting Arginine Residues in the AAA+ Chaperone ClpB Allosterically Regulate the Activity through Inter- and Intradomain Communication*” (The Journal of Biological Chemistry, 2014)

Tests used:
ClpB NBD1-M A390C = molecular target: T1, ClpB NBD1-M A390C (Thermus thermophilus, UniProt Q9RA63 141-534, A390C); test: cross-linking; intermolecular disulfide between two single-cysteine variants, 50 μM each, 50 μM copper phenanthroline, 2 mM ADP, 50 mM Tris/HCl pH 7.5, 50 mM KCl, 5 mM MgCl2, 1 h at 37 °C; dimer separated on Superdex 200 26/60, non-reducing SDS-PAGE; details: both partners purified
T1 construct: ClpB from Thermus thermophilus, NBD1 and M-domain, amino acids 141-534; source: E. coli BL21 (DE3) RIL, purified

ClpB NBD1-M M394C = molecular target: T2, ClpB NBD1-M M394C (Thermus thermophilus, UniProt Q9RA63 141-534, M394C); test: as above; details: both partners purified
T2 construct: ClpB from Thermus thermophilus, NBD1 and M-domain, amino acids 141-534; source: E. coli BL21 (DE3) RIL, purified

[1] = molecular target: the molecule itself; test: SEC-MALS; Superdex 200 10/300 GL with multiangle static light scattering (SLS), buffer A (50 mM Tris/HCl pH 7.5, 50 mM KCl, 5 mM MgCl2, 2 mM EDTA); running buffer nucleotide-free or with 2 mM ADP or 2 mM ATP; 40 μl of 100 μM injected, about 2 μM at the detector; self-association induced by nucleotide
[2] = molecular target: the molecule itself; test: dynamic light scattering; 1–30 μM protein (monomeric units) in buffer A with 2 mM ATP and an ATP-regenerating system (phosphoenolpyruvate, pyruvate kinase); self-association
full-length ClpB M394C = molecular target: T3, full-length ClpB M394C (Thermus thermophilus, UniProt Q9RA63 1-854, M394C); test: cross-linking; intermolecular disulfide between two single-cysteine variants, 50 μM each, 50 μM copper phenanthroline, 2 mM ADP, 50 mM Tris/HCl pH 7.5, 50 mM KCl, 5 mM MgCl2, 1 h at 37 °C; dimer separated on Superdex 200 26/60, non-reducing SDS-PAGE; details: both partners purified
T3 construct: ClpB from Thermus thermophilus, full-length protein; source: E. coli BL21 (DE3) RIL, purified

Binder	stoichiometry N [2]	further results
ClpB NBD1-M Q184C (domain or fragment, ClpB from Thermus thermophilus, NBD1 and M-domain, amino acids 141-534; source: E. coli BL21 (DE3) RIL, purified) not shown	–	binding result (ClpB NBD1-M A390C): binds
ClpB NBD1-M P221C (domain or fragment, Thermus thermophilus, UniProt Q9RA63 141-534, looked up, ClpB from Thermus thermophilus, NBD1 and M-domain, amino acids 141-534; source: E. coli BL21 (DE3) RIL, purified) VQTEHAESTYNALEQYGIDLTRLAAEGKLDPVIGRDEEIRRVIQILLRRTKNNPVLIGEPGVGKTAIVEGLAQRIVKGDVCEGLKGKRIVSLQMGSLLAGAKYRGEFEERLKAVIQEVVQSQGEVILFIDELHTVVGAGKAEGAVDAGNMLKPALARGELRLIGATTLDEYREIEKDPALERRFQPVYVDEPTVEETISILRGLKEKYEVHHGVRISDSAIIAAATLSHRYITERRLPDKAIDLIDEAAARLRMALESAPEEIDALERKKLQLEIEREALKKEKDPDSQERLKAIEAEIAKLTEEIAKLRAEWEREREILRKLREAQHRLDEVRREIELAERQYDLNRAAELRYGELPKLEAEVEALSEKLRGARFVRLEVTEEDIAEIVSRWT	–	binding result (ClpB NBD1-M M394C): binds
cross-linked NBD1-M dimer wild-type (P221C/M394C disulfide) (complex, intermolecular disulfide bond between P221C of this chain and M394C of the other chain | intermolecular disulfide bond between M394C of this chain and P221C of the other chain, ClpB from Thermus thermophilus, NBD1 and M-domain, amino acids 141-534; also called cross-linked wild-type dimer; P221C/M394C dimer; source: E. coli BL21 (DE3) RIL, purified; the two cysteine variants oxidised with copper phenanthroline, dimer separated on Superdex 200) chain 1: VQTEHAESTYNALEQYGIDLTRLAAEGKLDPVIGRDEEIRRVIQILLRRTKNNPVLIGEPGVGKTAIVEGLAQRIVKGDVCEGLKGKRIVSLQMGSLLAGAKYRGEFEERLKAVIQEVVQSQGEVILFIDELHTVVGAGKAEGAVDAGNMLKPALARGELRLIGATTLDEYREIEKDPALERRFQPVYVDEPTVEETISILRGLKEKYEVHHGVRISDSAIIAAATLSHRYITERRLPDKAIDLIDEAAARLRMALESAPEEIDALERKKLQLEIEREALKKEKDPDSQERLKAIEAEIAKLTEEIAKLRAEWEREREILRKLREAQHRLDEVRREIELAERQYDLNRAAELRYGELPKLEAEVEALSEKLRGARFVRLEVTEEDIAEIVSRWT chain 2: not shown	–	stoichiometry N [1]: ~4 NBD1-M subunits (two cross-linked dimers)
ClpB NBD1-M R323A (domain or fragment, ClpB from Thermus thermophilus, NBD1 and M-domain, amino acids 141-534; also called single mutant R323A; source: E. coli BL21 (DE3) RIL, purified) not shown	2	–
ClpB NBD1-M wild type (domain or fragment, ClpB from Thermus thermophilus, NBD1 and M-domain, amino acids 141-534; also called unlinked NBD1-M wild type; ClpB construct comprising residues 141-534; source: E. coli BL21 (DE3) RIL, purified) not shown	3	–
ClpB NBD1-M R322A (domain or fragment, ClpB from Thermus thermophilus, NBD1 and M-domain, amino acids 141-534; also called single mutant R322A; source: E. coli BL21 (DE3) RIL, purified) not shown	2	–
full-length ClpB P221C (natural protein, Thermus thermophilus, UniProt Q9RA63 1-854, looked up, ClpB from Thermus thermophilus, full-length protein; source: E. coli BL21 (DE3) RIL, purified) MNLERWTQAAREALAQAQVLAQRMKHQAIDLPHLWAVLLKDERSLAWRLLEKAGADPKALKELQERELARLPKVEGAEVGQYLTSRLSGALNRAEALMEELKDRYVAVDTLVLALAEATPGLPGLEALKGALKELRGGRTVQTEHAESTYNALEQYGIDLTRLAAEGKLDPVIGRDEEIRRVIQILLRRTKNNPVLIGEPGVGKTAIVEGLAQRIVKGDVCEGLKGKRIVSLQMGSLLAGAKYRGEFEERLKAVIQEVVQSQGEVILFIDELHTVVGAGKAEGAVDAGNMLKPALARGELRLIGATTLDEYREIEKDPALERRFQPVYVDEPTVEETISILRGLKEKYEVHHGVRISDSAIIAAATLSHRYITERRLPDKAIDLIDEAAARLRMALESAPEEIDALERKKLQLEIEREALKKEKDPDSQERLKAIEAEIAKLTEEIAKLRAEWEREREILRKLREAQHRLDEVRREIELAERQYDLNRAAELRYGELPKLEAEVEALSEKLRGARFVRLEVTEEDIAEIVSRWTGIPVSKLLEGEREKLLRLEEELHKRVVGQDEAIRAVADAIRRARAGLKDPNRPIGSFLFLGPTGVGKTELAKTLAATLFDTEEAMIRIDMTEYMEKHAVSRLIGAPPGYVGYEEGGQLTEAVRRRPYSVILFDEIEKAHPDVFNILLQILDDGRLTDSHGRTVDFRNTVIILTSNLGSPLILEGLQKGWPYERIRDEVFKVLQQHFRPEFLNRLDEIVVFRPLTKEQIRQIVEIQLSYLRARLAEKRISLELTEAAKDFLAERGYDPVFGARPLRRVIQRELETPLAQKILAGEVKEGDRVQVDVGPAGLVFAVPARVEA	–	binding result (full-length ClpB M394C): binds
ClpB NBD1-M R322A/R323A (domain or fragment, ClpB from Thermus thermophilus, NBD1 and M-domain, amino acids 141-534; also called double mutant; source: E. coli BL21 (DE3) RIL, purified) not shown	2	–
